Source: US20150246136A1 (Bayer, published 2015)

Biological target: Mesothelin (SwissProt reference Q13421-3) (Homo sapiens, UniProt Q13421 37-622)
Test: cell-based or functional assay

IC50 (nM), HT29 meso+ cells, MTT proliferation assay	Binder
0.6 nM	Example 105, conjugate of anti-mesothelin antibody MF-Ta (antibody, human IgG1, lambda, V domains shown, toxophore-linker on Lys NH, sites not given) VH: QVELVQSGAEVKKPGESLKISCKGSGYSFTSYWIGWVRQAPGKGLEWMGIIDPGDSRTRYSPSFQGQVTISADKSISTAYLQWSSLKASDTAMYYCARGQLYGGTYMDGWGQGTLVTVSS VL: DIALTQPASVSGSPGQSITISCTGTSSDIGGYNSVSWYQQHPGKAPKLMIYGVNNRPSGVSNRFSGSKSGNTASLTISGLQAEDEADYYCSSYDIESATPVFGGGTKLTVLG
1.8 nM	Example 104, conjugate of anti-mesothelin antibody MF-Ta (antibody, human IgG1, lambda, V domains shown, toxophore-linker on Lys NH, sites not given) VH: QVELVQSGAEVKKPGESLKISCKGSGYSFTSYWIGWVRQAPGKGLEWMGIIDPGDSRTRYSPSFQGQVTISADKSISTAYLQWSSLKASDTAMYYCARGQLYGGTYMDGWGQGTLVTVSS VL: DIALTQPASVSGSPGQSITISCTGTSSDIGGYNSVSWYQQHPGKAPKLMIYGVNNRPSGVSNRFSGSKSGNTASLTISGLQAEDEADYYCSSYDIESATPVFGGGTKLTVLG

The next lines start with the binder.

Binder	IC50 (nM), HT29 meso+ cells, MTT proliferation assay
Example 98, conjugate of anti-mesothelin antibody MF-Ta (antibody, human IgG1, lambda, V domains shown, toxophore-linker on Cys sulfur, sites not given) VH: QVELVQSGAEVKKPGESLKISCKGSGYSFTSYWIGWVRQAPGKGLEWMGIIDPGDSRTRYSPSFQGQVTISADKSISTAYLQWSSLKASDTAMYYCARGQLYGGTYMDGWGQGTLVTVSS VL: DIALTQPASVSGSPGQSITISCTGTSSDIGGYNSVSWYQQHPGKAPKLMIYGVNNRPSGVSNRFSGSKSGNTASLTISGLQAEDEADYYCSSYDIESATPVFGGGTKLTVLG	1.7 nM
Example 100, conjugate of anti-mesothelin antibody MF-Ta (antibody, human IgG1, lambda, V domains shown, toxophore-linker on Cys sulfur, sites not given) VH: QVELVQSGAEVKKPGESLKISCKGSGYSFTSYWIGWVRQAPGKGLEWMGIIDPGDSRTRYSPSFQGQVTISADKSISTAYLQWSSLKASDTAMYYCARGQLYGGTYMDGWGQGTLVTVSS VL: DIALTQPASVSGSPGQSITISCTGTSSDIGGYNSVSWYQQHPGKAPKLMIYGVNNRPSGVSNRFSGSKSGNTASLTISGLQAEDEADYYCSSYDIESATPVFGGGTKLTVLG	2 nM
Example 103, conjugate of anti-mesothelin antibody MF-Ta (antibody, human IgG1, lambda, V domains shown, toxophore-linker on Cys sulfur, sites not given) VH: QVELVQSGAEVKKPGESLKISCKGSGYSFTSYWIGWVRQAPGKGLEWMGIIDPGDSRTRYSPSFQGQVTISADKSISTAYLQWSSLKASDTAMYYCARGQLYGGTYMDGWGQGTLVTVSS VL: DIALTQPASVSGSPGQSITISCTGTSSDIGGYNSVSWYQQHPGKAPKLMIYGVNNRPSGVSNRFSGSKSGNTASLTISGLQAEDEADYYCSSYDIESATPVFGGGTKLTVLG	10 nM
Example 99, conjugate of anti-mesothelin antibody MF-Ta (antibody, human IgG1, lambda, V domains shown, toxophore-linker on Cys sulfur, sites not given) VH: QVELVQSGAEVKKPGESLKISCKGSGYSFTSYWIGWVRQAPGKGLEWMGIIDPGDSRTRYSPSFQGQVTISADKSISTAYLQWSSLKASDTAMYYCARGQLYGGTYMDGWGQGTLVTVSS VL: DIALTQPASVSGSPGQSITISCTGTSSDIGGYNSVSWYQQHPGKAPKLMIYGVNNRPSGVSNRFSGSKSGNTASLTISGLQAEDEADYYCSSYDIESATPVFGGGTKLTVLG	0.27 nM
Example 101, conjugate of anti-mesothelin antibody MF-Ta (antibody, human IgG1, lambda, V domains shown, toxophore-linker on Cys sulfur, sites not given) VH: QVELVQSGAEVKKPGESLKISCKGSGYSFTSYWIGWVRQAPGKGLEWMGIIDPGDSRTRYSPSFQGQVTISADKSISTAYLQWSSLKASDTAMYYCARGQLYGGTYMDGWGQGTLVTVSS VL: DIALTQPASVSGSPGQSITISCTGTSSDIGGYNSVSWYQQHPGKAPKLMIYGVNNRPSGVSNRFSGSKSGNTASLTISGLQAEDEADYYCSSYDIESATPVFGGGTKLTVLG	3 nM
Example 102, conjugate of anti-mesothelin antibody MF-Ta (antibody, human IgG1, lambda, V domains shown, toxophore-linker on Lys NH, sites not given) VH: QVELVQSGAEVKKPGESLKISCKGSGYSFTSYWIGWVRQAPGKGLEWMGIIDPGDSRTRYSPSFQGQVTISADKSISTAYLQWSSLKASDTAMYYCARGQLYGGTYMDGWGQGTLVTVSS VL: DIALTQPASVSGSPGQSITISCTGTSSDIGGYNSVSWYQQHPGKAPKLMIYGVNNRPSGVSNRFSGSKSGNTASLTISGLQAEDEADYYCSSYDIESATPVFGGGTKLTVLG	7.2 nM
